Measured values published in US8748182B2, “Mutant proteins and methods for producing them” (Heptares Therapeutics Limited, priority 2007, dated 2014).
Numbering of substitutions follows the chain as printed. Numbers in names are those of the source.

B1: 1116A: NTR point mutant (Ile 116) (protein, UniProt P20789 1-424, looked up, variant I116A)
Neurotensin receptor type 1: MHLNSSVPQGTPGEPDAQPFSGPQSEMEATFLALSLSNGSGNTSESDTAGPNSDLDVNTDIYSKVLVTAIYLALFVVGTVGNSVTAFTLARKKSLQSLQSTVHYHLGSLALSDLLALLLAMPVELYNFIWVHHPWAFGDAGCRGYYFLRDACTYATALNVASLSVERYLAICHPFKAKTLMSRSRTKKFISAIWLASALLAIPMLFTMGLQNRSGDGTHPGGLVCTPIVDTATVKVVIQVNTFMSFLFPMLVISILNTVIANKLTVMVHQAAEQGRVCTVGTHNGLEHSTFNMTIEPGRVQALRHGVLVLRAVVIAFVVCWLPYHVRRLMFCYISDEQWTTFLFDFYHYFYMLTNALFYVSSAINPILYNLVSANFRQVFLSTLACLCPGWRHRRKKRPTFSRKPNSMSSNHAFSTSATRETLY
B2: D345A: NTR point mutant (protein, UniProt P20789 1-424, looked up, variant D345A)
Neurotensin receptor type 1: B1 Neurotensin receptor type 1 with A116I, D345A
B3: M293A: NTR point mutant (protein, UniProt P20789 1-424, looked up, variant M293A)
Neurotensin receptor type 1: B1 Neurotensin receptor type 1 with A116I, M293A
B4: F358A: NTR point mutant (protein, UniProt P20789 1-424, looked up, variant F358A)
Neurotensin receptor type 1: B1 Neurotensin receptor type 1 with A116I, F358A
B5: A356L: NTR point mutant (protein, UniProt P20789 1-424, looked up, variant A356L)
Neurotensin receptor type 1: B1 Neurotensin receptor type 1 with A116I, A356L
B6: R392A: NTR point mutant (protein, UniProt P20789 1-424, looked up, variant R392A)
Neurotensin receptor type 1: B1 Neurotensin receptor type 1 with A116I, R392A
B7: T207A: NTR point mutant (protein, UniProt P20789 1-424, looked up, variant T207A)
Neurotensin receptor type 1: B1 Neurotensin receptor type 1 with A116I, T207A
B8: A155L: NTR point mutant (protein, UniProt P20789 1-424, looked up, variant A155L)
Neurotensin receptor type 1: B1 Neurotensin receptor type 1 with A116I, A155L
B9: W391A: NTR point mutant (protein, UniProt P20789 1-424, looked up, variant W391A)
Neurotensin receptor type 1: B1 Neurotensin receptor type 1 with A116I, W391A
B10: S182A: NTR point mutant (protein, UniProt P20789 1-424, looked up, variant S182A)
Neurotensin receptor type 1: B1 Neurotensin receptor type 1 with A116I, S182A
B11: L72A: NTR point mutant (protein, UniProt P20789 1-424, looked up, variant L72A)
Neurotensin receptor type 1: B1 Neurotensin receptor type 1 with L72A, A116I
B12: D113A: NTR point mutant (protein, UniProt P20789 1-424, looked up, variant D113A)
Neurotensin receptor type 1: B1 Neurotensin receptor type 1 with D113A, A116I
B13: L205A: NTR point mutant (protein, UniProt P20789 1-424, looked up, variant L205A)
Neurotensin receptor type 1: B1 Neurotensin receptor type 1 with A116I, L205A
B14: F189A: NTR point mutant (protein, UniProt P20789 1-424, looked up, variant F189A)
Neurotensin receptor type 1: B1 Neurotensin receptor type 1 with A116I, F189A
B15: S108A: NTR point mutant (protein, UniProt P20789 1-424, looked up, variant S108A)
Neurotensin receptor type 1: B1 Neurotensin receptor type 1 with S108A, A116I
B16: Y351A: NTR point mutant (protein, UniProt P20789 1-424, looked up, variant Y351A)
Neurotensin receptor type 1: B1 Neurotensin receptor type 1 with A116I, Y351A
B17: S362A: NTR point mutant (protein, UniProt P20789 1-424, looked up, variant S362A)
Neurotensin receptor type 1: B1 Neurotensin receptor type 1 with A116I, S362A
B18: L111A: NTR point mutant (protein, UniProt P20789 1-424, looked up, variant L111A)
Neurotensin receptor type 1: B1 Neurotensin receptor type 1 with L111A, A116I
B19: V268A: NTR point mutant (protein, UniProt P20789 1-424, looked up, variant V268A)
Neurotensin receptor type 1: B1 Neurotensin receptor type 1 with A116I, V268A
B20: L256A: NTR point mutant (protein, UniProt P20789 1-424, looked up, variant L256A)
Neurotensin receptor type 1: B1 Neurotensin receptor type 1 with A116I, L256A
B21: K176A: NTR point mutant (protein, UniProt P20789 1-424, looked up, variant K176A)
Neurotensin receptor type 1: B1 Neurotensin receptor type 1 with A116I, K176A
B22: A120L: NTR point mutant (protein, UniProt P20789 1-424, looked up, variant A120L)
Neurotensin receptor type 1: B1 Neurotensin receptor type 1 with A116I, A120L
B23: F147A: NTR point mutant (protein, UniProt P20789 1-424, looked up, variant F147A)
Neurotensin receptor type 1: B1 Neurotensin receptor type 1 with A116I, F147A
B24: D139A: NTR point mutant (protein, UniProt P20789 1-424, looked up, variant D139A)
Neurotensin receptor type 1: B1 Neurotensin receptor type 1 with A116I, D139A
B25: A90L: NTR point mutant (protein, UniProt P20789 1-424, looked up, variant A90L)
Neurotensin receptor type 1: B1 Neurotensin receptor type 1 with A90L, A116I
B26: T179A: NTR point mutant (protein, UniProt P20789 1-424, looked up, variant T179A)
Neurotensin receptor type 1: B1 Neurotensin receptor type 1 with A116I, T179A
B27: N262A: NTR point mutant (protein, UniProt P20789 1-424, looked up, variant N262A)
Neurotensin receptor type 1: B1 Neurotensin receptor type 1 with A116I, N262A
B28: H103A: NTR point mutant (protein, UniProt P20789 1-424, looked up, variant H103A)
Neurotensin receptor type 1: B1 Neurotensin receptor type 1 with H103A, A116I
B29: M181A: NTR point mutant (protein, UniProt P20789 1-424, looked up, variant M181A)
Neurotensin receptor type 1: B1 Neurotensin receptor type 1 with A116I, M181A
B30: G209A: NTR point mutant (protein, UniProt P20789 1-424, looked up, variant G209A)
Neurotensin receptor type 1: B1 Neurotensin receptor type 1 with A116I, G209A
B31: S100A: NTR point mutant (protein, UniProt P20789 1-424, looked up, variant S100A)
Neurotensin receptor type 1: B1 Neurotensin receptor type 1 with S100A, A116I
B32: P399A: NTR point mutant (protein, UniProt P20789 1-424, looked up, variant P399A)
Neurotensin receptor type 1: B1 Neurotensin receptor type 1 with A116I, P399A
B33: L109A: NTR point mutant (protein, UniProt P20789 1-424, looked up, variant L109A)
Neurotensin receptor type 1: B1 Neurotensin receptor type 1 with L109A, A116I

Test: Thermostability of neurotensin receptor (NTR) mutants (3H-neurotensin binding)
Format: physicochemical
Settings: for thermostability, 3H-neurotensin (agonist) binding after the heating step: heated in the absence of the agonist; for thermostability, heated in the presence of 3H-neurotensin: Ligand(+) format
Method: FIG. 12 Flow chart showing the two different assay formats of ligand (+) and ligand (−) used to determine receptor thermostablity.
3. Mutants tested for thermostability by heating in the absence of the agonist were re-tested using a slightly different assay where the mutants were heated in the presence of ^3H-neurotensin (Ligand(+) format in FIG. 12). […] All of these also have increased thermostability. • 5. Preferred combinations are • a. Nag7m F358A+A86L+1260A+F342A Tm 51° C. (neurotensin bound) • b. Nag7n F358A+H103A+1260A+F342A Tm 51° C. (neurotensin bound) • Wildtype NTR has a Tm of 35° C. with neurotensin bound.

| Molecule | thermostability, 3H-neurotensin (agonist) binding after the heating step | thermostability, heated in the presence of 3H-neurotensin |
| --- | --- | --- |
| B1 | small but significant increase in thermostability | – |
| B2 | small but significant increase in thermostability | – |
| B3 | small but significant increase in thermostability | – |
| B4 | small but significant increase in thermostability | improved thermostability |
| B5 | small but significant increase in thermostability | – |
| B6 | small but significant increase in thermostability | – |
| B7 | small but significant increase in thermostability | – |
| B8 | small but significant increase in thermostability | – |
| B9 | small but significant increase in thermostability | – |
| B10 | small but significant increase in thermostability | – |
| B11 | small but significant increase in thermostability | – |
| B12 | small but significant increase in thermostability | – |
| B13 | small but significant increase in thermostability | – |
| B14 | small but significant increase in thermostability | – |
| B15 | small but significant increase in thermostability | – |
| B16 | small but significant increase in thermostability | – |
| B17 | small but significant increase in thermostability | improved thermostability |

| Molecule | thermostability, 3H-neurotensin (agonist) binding after the heating step | thermostability, heated in the presence of 3H-neurotensin |
| --- | --- | --- |
| B18 | small but significant increase in thermostability | – |
| B19 | small but significant increase in thermostability | – |
| B20 | small but significant increase in thermostability | – |
| B21 | small but significant increase in thermostability | – |
| B22 | small but significant increase in thermostability | – |
| B23 | small but significant increase in thermostability | – |
| B24 | small but significant increase in thermostability | – |
| B25 | small but significant increase in thermostability | improved thermostability |
| B26 | small but significant increase in thermostability | – |
| B27 | small but significant increase in thermostability | – |
| B28 | small but significant increase in thermostability | improved thermostability |
| B29 | small but significant increase in thermostability | – |
| B30 | small but significant increase in thermostability | – |
| B31 | small but significant increase in thermostability | – |
| B32 | small but significant increase in thermostability | – |
| B33 | small but significant increase in thermostability | – |
